Assay results taken from patent US20260258143A1 (published 2026).
Positions count from the first letter of the chain named. Where two headings read alike, the source gives them in different places.

Legend:
Test in all cases: SPR
[1] = target: T1, human CD25-extracellular domain (CD25-ECD) (UniProt P01589 22-240)
T1 chain: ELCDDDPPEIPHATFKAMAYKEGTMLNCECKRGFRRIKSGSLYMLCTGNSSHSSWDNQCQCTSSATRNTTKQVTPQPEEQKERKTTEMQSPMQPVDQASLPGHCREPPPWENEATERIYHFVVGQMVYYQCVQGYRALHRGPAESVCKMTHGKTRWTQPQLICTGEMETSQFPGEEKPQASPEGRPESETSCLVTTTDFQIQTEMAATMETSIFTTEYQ

[2] = target: T1, human CD25-extracellular domain …
[3] = target: cynomolgus CD25
[4] = target: T1, human CD25-extracellular domain …
[5] = target: T1, human CD25-extracellular domain …
[6] = target: cynomolgus CD25; remark: listed apart in the source
[7] = target: cCD25
[8] = target: cynomolgus CD25; remark: listed apart in the source
[9] = target: T1, human CD25-extracellular domain …

B1: humanized anti-CD25 V-body 46A3 (VHH)
VHH: EVQLLESGGGLAQPGGSLRLSCAASGFTFSNYAMSWARQAPGKGLEWVSGIYSDGSGTYYADSVKGRFTISRDNAKNTVYLQMNSLRPEDTAVYYCAKGRNSGSYYPWDDYWGQGTQVTVSS
Kd [1]: 49 nM
Kd [2]: 49 nM

B2: ODY-83B03Hu1 (VHH)
VHH: EVQLVESGGGLVQPGGSLRLSCAASGMPLVAMGWYRQAPGKQRELVASISSGGNTGYADSVKGRFTISRDNAKKTVYLQMNSVRPEDTGVYYCNIYRSQVPPTRYSWGQGTQVTVSS
Kd [3]: 112 nM
Kd [4]: 21 nM

B3: ODY-83B05Hu1 (VHH)
VHH: EVQLLESGGGLVQPGGSLRLSCAASGFTLDYYAIGWFRQAPGKEREGVLSISSTDGRTYYADSVKGRFTISRDNPKNTVYLQLNSLRPEDTAVYYCAAKRLGPMVHRYSLEVLTPLFLDEYDYWGQGTQVTVSS
Kd [5]: 35 nM
Kd [6]: 97 nM

B4: 47D3 (VHH)
VHH: EVQLLESGGGLVQPGGSLRVSCAASGRTFSWNGMGWFRQAPGKEREFVAAISQSGGRTRYADSVKGRFTISRDNAKNTVYLQMNSLRPEDTAVYYCAASDFLLATTISAYDYWGQGTQVTVSS
Kd [7]: 49 nM
Kd [8]: 49 nM

B5: 83F07Hu1_L (antibody, V domains shown)
VH: B3 VHH with M104L, R107Q
Kd [9]: 97 nM
